Laboratory results: US20220002389A1 (IMMUNO BIOLOGICAL LABORATORIES, published 2022)

Target: HIV-1 BaL strain envelope protein (gp120) on BaL-infected CEM.NKR-CCR5 (NKR24) cells (HIV-1 BaL strain)
Assay: cell-based or functional assay

Binder | IC50 (50% inhibitory concentration) of infection of TZM-bl cells by BaL virus, luciferase RLU; 'Dose at Y = 50' [µg/mL]
Bcell-1C10 (1C10 antibody of B cell origin) (antibody, human IgG1, kappa, V domains shown) VH: EVQLVESGGGVVQPGRSLRVSCVASGFMFSNYAMHWVRQTAGKGLEWVAIISNDGSDKYYADSVQGRFTVSRDNSQNTLFLQMSGLRPEDSGLYYCARDLDQTIPDLTAPAFEVWGQGTMVTVSS VL: DIVMTQSPLSLAVTPGEPASISCRSSQSLLHSDGNNYLDWYLQKPGQSPQLLIYLTSNRASGVPDRFSGSGSGTDFTLKISRVEAEDVGVYFCMQSLQTWTFGQGTKVEIKR | 0.097
CHO-1C10 (1C10 antibody produced in ExpiCHO-S cells) (antibody, human IgG1, kappa, V domains shown, about 70.3% core fucose-added N-glycan) VH: EVQLVESGGGVVQPGRSLRVSCVASGFMFSNYAMHWVRQTAGKGLEWVAIISNDGSDKYYADSVQGRFTVSRDNSQNTLFLQMSGLRPEDSGLYYCARDLDQTIPDLTAPAFEVWGQGTMVTVSS VL: DIVMTQSPLSLAVTPGEPASISCRSSQSLLHSDGNNYLDWYLQKPGQSPQLLIYLTSNRASGVPDRFSGSGSGTDFTLKISRVEAEDVGVYFCMQSLQTWTFGQGTKVEIKR | 0.0781
